Biological target: alanine or glycine:cation symporter (AgcS) from Methanococcus maripaludis (Methanococcus maripaludis, UniProt Q6LX42)
Experiment: crystal structure

Chain of alanine or glycine:cation symporter (AgcS) from Methanococcus maripaludis (Q6LX42 whole entry): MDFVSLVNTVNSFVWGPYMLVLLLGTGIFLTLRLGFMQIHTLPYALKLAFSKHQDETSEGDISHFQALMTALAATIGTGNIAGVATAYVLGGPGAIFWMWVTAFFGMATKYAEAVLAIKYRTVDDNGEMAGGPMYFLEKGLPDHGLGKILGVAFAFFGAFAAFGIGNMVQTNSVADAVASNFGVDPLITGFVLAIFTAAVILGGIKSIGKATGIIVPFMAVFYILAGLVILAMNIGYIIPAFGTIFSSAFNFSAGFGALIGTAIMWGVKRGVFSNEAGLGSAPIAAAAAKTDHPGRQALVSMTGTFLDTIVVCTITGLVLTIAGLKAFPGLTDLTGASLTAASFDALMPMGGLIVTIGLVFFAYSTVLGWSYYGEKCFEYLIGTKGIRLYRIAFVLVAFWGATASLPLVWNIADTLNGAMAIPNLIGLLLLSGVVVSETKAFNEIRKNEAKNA

B1: 7B4 Fab fragment (Fab, V domains shown)
VH: EVKLEESGGGLVQPGGSMKLSCAASGFTSSDFAMDWVRQSPEAGLEWVAEIAASERHYAESVKGRFTISRDDSKSSVYLQMNSLRAEDSGLYYCTRTAGACGQWGTGTTVTVSS
VL: DIAMTQSPASLSASVGETVTITCRTSENIASALAWYQQKQGKSPQLLVMNAKTLAAGVPSRFSGSGSGTAFSLKINSLQPEDFGSYSCQHAAGWLLTFGGGTKLEIK
binding result: binds
